The target of this test is T1, mouse pIgR extracellular domain (ECD) (mouse, UniProt O70570 19-645).
T1 construct: The entry ends with a C-terminal HHHHHH tag; also called mpIgR; mpIgR ectodomain
T1 sequence: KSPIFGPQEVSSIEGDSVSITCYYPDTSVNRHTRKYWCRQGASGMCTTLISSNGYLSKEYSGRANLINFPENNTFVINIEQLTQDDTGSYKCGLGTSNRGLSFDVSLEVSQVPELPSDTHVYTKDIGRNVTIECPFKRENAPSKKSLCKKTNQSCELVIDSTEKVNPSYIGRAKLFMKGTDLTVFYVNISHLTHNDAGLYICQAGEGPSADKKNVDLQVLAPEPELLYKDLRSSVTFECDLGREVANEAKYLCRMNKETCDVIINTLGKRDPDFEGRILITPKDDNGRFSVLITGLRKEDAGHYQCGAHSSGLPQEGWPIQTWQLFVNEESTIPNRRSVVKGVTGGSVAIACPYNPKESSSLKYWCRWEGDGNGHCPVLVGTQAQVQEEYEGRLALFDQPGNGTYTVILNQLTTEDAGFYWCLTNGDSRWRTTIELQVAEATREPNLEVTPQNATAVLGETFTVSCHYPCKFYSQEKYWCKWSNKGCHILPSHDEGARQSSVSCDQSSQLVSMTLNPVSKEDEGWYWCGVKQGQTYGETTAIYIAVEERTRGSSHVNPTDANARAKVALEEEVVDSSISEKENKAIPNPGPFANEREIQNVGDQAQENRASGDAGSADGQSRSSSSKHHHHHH
The experiment in a line: not named on the sheet.

B1: VHH3 - linker-mono-Fc protein (Fc fusion)
chain: QLQLVESGGGLVQPGGSLRLSCAASGSIFSINVMGWYRQAPGKQRELVARINGGGITHYAESVKGRFTISRDNAKNTVYLQMNSLKPEDTAAYYCKADVFGSSGYVETYWGQGTQVTVSSEPKTPKPQPQPQLQPQPNPTTESKSPKSPAPELLGGPSVFLFPPKPKDTLMISRTPEVTCVVVDVSHEDPEVKFNWYVDGVEVHNAKTKPREEQYNSTYRVVSVLTVLHQDWLNGKEYKCKVSNKALPAPIEKTISKAKGQPREPQVYTKPPSREEMTKNQVSLSCLVKGFYPSDIAVEWESNGQPENNYKTTVPVLDSDGSFRLASYLTVDKSRWQQGNVFSCSVMHEALHNHYTQKSLSLSPGK
notes: also called VHH3-mono-Fc; hpIgR_021
On to B1, for which the binding result is “binds”.

B2: VHH2 - linker-mono-Fc protein (Fc fusion)
chain: EVQVVESGGGLVQAGGSLKLACAAPGLTFSSYRMGWFRQAPGQEREFVAAIDWNGRGTYYRYYADSVKGRSTISRDNAKNTVYLQMNSLKPEDTAVYYCAATTVLTDPRVLNEYATWGQGTQVTVSSEPKTPKPQPQPQLQPQPNPTTESKSPKSPAPELLGGPSVFLFPPKPKDTLMISRTPEVTCVVVDVSHEDPEVKFNWYVDGVEVHNAKTKPREEQYNSTYRVVSVLTVLHQDWLNGKEYKCKVSNKALPAPIEKTISKAKGQPREPQVYTKPPSREEMTKNQVSLSCLVKGFYPSDIAVEWESNGQPENNYKTTVPVLDSDGSFRLASYLTVDKSRWQQGNVFSCSVMHEALHNHYTQKSLSLSPGK
notes: also called VHH2-mono-Fc; mpIgR_338
On to B2, for which the binding result was “binds”.

The record behind these values is patent US20230019640A1 (Janssen / Centocor, published 2023).
